Results from EP1655308B1, “Adducts of soluble ovalbumin with trivalent iron polyalcohol complexes and method to produce them” (Tedec-Meiji Farma, S.A., priority 2004, dated 2006).

Assay: Solubility of the lyophilised adduct at 1 %
Type: physicochemical
Conditions: lyophilised powder, 1 % solution
Method: a) Iron - manitol complex: 31.5 g of FeCl3·6H2O are dissolved jointly with 7.9 g of manitol in 400 ml of water. A solution of 18 g of NaOH in 48 ml of water is added under vigorous stirring. It is heated to 95° C, letting it spontaneously cool down to ambient temperature. b) Treated ovalbumin: 37.50 g of commercial ovalbumin in powder form are dispersed under vigorous stirring in 180 ml of water. A solution of 30 g of NaOH in 550 ml of water is heated separately to 65° C. The protein dispersion is added to the alkaline solution and is digested at 65° C for 15 minutes, with the pH being subsequently adjusted to a value between 8.5 - 10 with 6M HCl. While keeping the solution at 50° C and pH 8.5 - 10, Esperase® (NOVO-NORDISK) is added in a quantity of 1 ‰ of the initial albumin (37.5 mg), proteolytically digesting it, under gentle stirring, for 2 hours at 50° C without any pH correction. Once this time has elapsed, the spontaneous pH is 8.5. The solution is heated to 80° C in order to deactivate the remaining enzymatic activity, the pH is adjusted to 10 with 10M NaOH and, when the temperature goes down to 65° C, 2 ml/l of 30 % w/v H2O2 are added. […]

For “Adduct between treated ovalbumin and iron (III) - manitol complex [Example 1]”, the 1 % solubility was “limpid”.
